In PMC8278588, “Biodegradation of flonicamid by Ensifer adhaerens CGMCC 6315 and enzymatic characterization of the nitrile hydratases involved” (Microbial Cell Factories, 2021) one finds Km and Vmax data, which are given here for two substances.

The test system of this data set is N#CCNC(=O)c1cnccc1C(F)(F)F. In words: purified protein. The following applies: 37 °C, 10 min, pH of kinetics not stated, hydration to TFNG-AM.

With CnhA (Ensifer adhaerens), the Km (in general, the substrate concentration at which the rate is half of its maximum) is listed as 5.07 mM and the maximal velocity (Vmax) (commonly the top rate of the reaction or transport when substrate is in excess) amounted to 9.55 µmol/min/mg.

PnhA (Ensifer adhaerens): the Km was 2.96 mM and the Vmax came out at 88.7 µmol/min/mg.
